Data reported in patent US20170128554A1 (NEW ENGLAND BIOLABS, published 2017).

Key:
[1] = molecular target: Sialylglycopeptide (SGP, Fushimi Pharmaceutical Co.); test: isothermal titration calorimetry, […] (50 mM NaCl), […]
[2] = molecular target: Sialylglycopeptide (SGP, Fushimi Pharmaceutical Co.); test: isothermal titration calorimetry, […] (2 M NaCl), […]
[3] = molecular target: T1, SGP-TMR (sialylglycopeptide labeled with two tetramethylrhodamine fluorophores); test: SGP-TMR pull-down on Fbs beads, low salt volatile buffer, fluorescence
T1 construct: also called sialylated SGP
Procedure: SNAP-Fbs is efficiently conjugated to BG beads (SNAP Capture Pull-Down resin (New England Biolabs, Ipswich, Mass.): SNAP-Fbs protein is reacted with BG beads at 4° C. overnight in a DTT-containing buffer (4 mM DTT, 20 mM tris-HCl pH 7.5, 1 mM EDTA, 50 mM NaCl). After the conjugation reaction, SNAP-Fbs beads are washed with 40× bead volume of low salt buffer.
Fbs binding to complex N-glycan linked glycomolecules is substantially unbiased in a high salt buffer. SGP was labeled with two tetramethylrhodamine (TMR) fluorophores on the peptide portion via lysine residues according to the TMR protein labeling kit protocol (Genaxxon Bioscience, Ulm Germany). After TMR labeling, a fraction of the SGP-TMR sample was processed with neuraminidase (New England Biolabs, Ipswich, Mass.) to remove terminal sialic acid residues. Two binding conditions (LS, low salt buffer and HS, high salt buffer) were tested. […] TMR Fluorescence in the supernatant was measured using a SpectraMax M5 fluorometer (excitation 555 nm and emission 595 nm with 590 nm cutoff). Binding of SGP-TMR to Fbs (y-axis) is determined by subtracting the fluorescence measured in the bead supernatant from the input fluorescence.
SGP-TMR affinity to the Fbs in low salt volatile buffer was analyzed by a pull-down assay using SNAP Capture Pull-Down resin conjugated with equal amounts of WT, GYR or PPRYR Fbs proteins (FIG. 10B). […]

Binder	Kd [1]	Kd [2]	fold increased affinity, against WT Fbs [3]
SNAP-Fbs (wild type Fbs sugar binding domain fused to SNAP-tag) (other, also called SNAP-wtFbs; wtFbs) MGSSHHHHHHGDKDCEMKRTTLDSPLGKLELSGCEQGLHEIKLLGKGTSAADAVEVPAPAAVLGGPEPLMQATAWLNAYFHQPEAIEEFPVPALHHPVFQQESFTRQVLWKLLKVVKFGEVISYQQLAALAGNPAATAAVKTALSGNPVPILIPCHRVVSSSGAVGGYEGGLAVKEWLLAHEGHRLGKPGLGPAAIGAPGSGSGSPAGCQQEGLVPEGGVEEERDHWQQFYFLSKRRRNLLRNPCGEEDLEGWCDVEHGGDGWRVEELPGDSGVEFTHDESVKKYFASSFEWCRKAQVIDLQAEGYWEELLDTTQPAIVVKDWYSGRSDAGCLYELTVKLLSEHENVLAEFSSGQVAVPQDSDGGGWMEISHTFTDYGPGVRFVRFEHGGQDSVYWKGWFGARVTNSSVWVEP	3000 nM	1430 nM	–
SNAP-tagged Fbs GYR mutant conjugated to BG beads (other, also called S155G+YR) MGSSHHHHHHGDKDCEMKRTTLDSPLGKLELSGCEQGLHEIKLLGKGTSAADAVEVPAPAAVLGGPEPLMQATAWLNAYFHQPEAIEEFPVPALHHPVFQQESFTRQVLWKLLKVVKFGEVISYQQLAALAGNPAATAAVKTALSGNPVPILIPCHRVVSSSGAVGGYEGGLAVKEWLLAHEGHRLGKPGLGPAAIGAPGSGSGSPAGCQQEGLVPEGGVEEERDHWQQFYFLSKRRRNLLRNPCGEEDLEGWCDVEHGGDGWRVEELPGDGGVEFTHDESVKKYFASSYRWCRKAQVIDLQAEGYWEELLDTTQPAIVVKDWYSGRSDAGCLYELTVKLLSEHENVLAEFSSGQVAVPQDSDGGGWMEISHTFTDYGPGVRFVRFEHGGQDSVYWKGWFGARVTNSSVWVEP	–	–	3 fold
SNAP-tagged Fbs PPRYR mutant conjugated to BG beads (other) MGSSHHHHHHGDKDCEMKRTTLDSPLGKLELSGCEQGLHEIKLLGKGTSAADAVEVPAPAAVLGGPEPLMQATAWLNAYFHQPEAIEEFPVPALHHPVFQQESFTRQVLWKLLKVVKFGEVISYQQLAALAGNPAATAAVKTALSGNPVPILIPCHRVVSSSGAVGGYEGGLAVKEWLLAHEGHRLGKPGLGPAAIGAPGSGSGSPAGCQQEGLVPEGGVEEERDHWQQFYFLSKRRRNLLRNPCGEEDLEGWCDVEHGGDGWRVEELPGPPRVEFTHDESVKKYFASSYRWCRKAQVIDLQAEGYWEELLDTTQPAIVVKDWYSGRSDAGCLYELTVKLLSEHENVLAEFSSGQVAVPQDSDGGGWMEISHTFTDYGPGVRFVRFEHGGQDSVYWKGWFGARVTNSSVWVEP	–	–	2 fold
